Target: SAM
Experiment: native mass spectrometry
Conditions: protein and substrate concentrations 5 µM

- other: relative abundance, 1x SAM bound (parent: 11): 18
- other: relative abundance, free protein (parent: 88): 80
Substance: GLP methyltransferase domain (aa 1001-1266), wild type (from UniProt Q9H9B1-1) C1073Y
